In patent US20260151519A1 (AKTIS ONCOLOGY, published 2026):
Bridges are numbered along the chain shown (N, C = ends). Primed or numbered codes have the meaning given here. Where no end group is shown, it is not given here. The star is where a group is joined. FITC = O=C1OC2(c3ccc(O)cc3Oc3cc(O)ccc32)c2ccc(NC(=S)*)cc21; DTPA = O=C(O)CN(CCN(CC(=O)O)CC(=O)O)CCN(CC(=O)O)CC(=O)*; Biotin = O=C1N[C@H]2[C@H](CS[C@H]2CCCCC(=O)*)N1; PEG4″ = 4(ethylene glycol)

B1: C183 (designed binder)
chain: {Biotin-PEG4″}-CEYDEQFFTALKRLRGADICEYIQASFQYLPGLCIEEILDNLGCS-OH
modifications: disulfide 1-34, 20-44
B2: C191 (designed binder)
chain: {Biotin-PEG4″}-CDYDEEFFTALKRLRGDDICEYIQASFQYLPGLCIEEILDNLGCS-OH
modifications: disulfide 1-34, 20-44
B3: C189 (designed binder)
chain: {Biotin-PEG4″}-CDYDEEFFTALKRLRGGDICSYIQASFQYLPGLCIEEILDNLGCS-OH
modifications: disulfide 1-34, 20-44
B4: C192 (designed binder)
chain: {Biotin-PEG4″}-CDYDEEFFTALKRLRGDDICSYIQASFQYLPGLCIEEILDNLGCS-OH
modifications: disulfide 1-34, 20-44
B5: C200 (designed binder)
chain: {Biotin-PEG4″}-CEYDEEFFTALKRLRGGDICDYIQASFQYLPGLCIEEILDNLGCS-OH
modifications: disulfide 1-34, 20-44
B6: C205 (designed binder)
chain: {Biotin-PEG4″}-CEYDEEFFTALKRLRGGDICDYIQASFQYLPGECIEEILQNLGCS-OH
modifications: disulfide 1-34, 20-44
B7: C188 (designed binder)
chain: {Biotin-PEG4″}-CDYDEEFFTALKRLRGGDICEYIQASFQYLPGLCIEEILDNLGCS-OH
modifications: disulfide 1-34, 20-44
B8: C204 (designed binder)
chain: {Biotin-PEG4″}-CEYDEEFFTALKRLRGGDICEYIQASFQYLPGECIEEILQNLGCS-OH
modifications: disulfide 1-34, 20-44
B9: C198 (designed binder)
chain: {Biotin-PEG4″}-CEYDEEFFTALKRLRGGDICEYIQAAFQYLPGLCIEEILDNLGCS-OH
modifications: disulfide 1-34, 20-44
B10: C211 (designed binder)
chain: {Biotin-PEG4″}-CDYDEQFFTALKRLRGGDICEYIQASFQYLPGQCIEEILDNLGCS
modifications: disulfide 1-34, 20-44
B11: C203 (designed binder)
chain: {Biotin-PEG4″}-CEYDEEFFTALKRLRGGDICDYIQASFQYLPGECIEEILDNLGCS-OH
modifications: disulfide 1-34, 20-44
B12: C210 (designed binder)
chain: {Biotin-PEG4″}-CDYDEQFFTALKRLRGGDICEYIQASFQYLPGECIEEILDNLGCS
modifications: disulfide 1-34, 20-44
B13: C202 (designed binder)
chain: {Biotin-PEG4″}-CEYDEEFFTALKRLRGGDICEYIQASFQYLPGECIEEILDNLGCS
modifications: disulfide 1-34, 20-44
B14: C207 (designed binder)
chain: {Biotin-PEG4″}-CDYDEQFFTALKRLRGADICEYIQASFQYLPGLCIEEILDNLGCS-OH
modifications: disulfide 1-34, 20-44
B15: C194 (designed binder)
chain: {Biotin-PEG4″}-CEYDEQFFTALKRLRGADICDYIQASFQYLPGLCIEEILDNLGCS-OH
modifications: disulfide 1-34, 20-44
B16: C195 (designed binder)
chain: {Biotin-PEG4″}-CEYDEEFFTALKRLRGADICDYIQASFQYLPGLCIEEILDNLGCS-OH
modifications: disulfide 1-34, 20-44
B17: C193 (designed binder)
chain: {Biotin-PEG4″}-CDYDEQFFTALKRLRGDDICEYIQASFQYLPGLCIEEILDNLGCS-OH
modifications: disulfide 1-34, 20-44
B18: C209 (designed binder)
chain: {Biotin-PEG4″}-CDYDEQFFTALKRLRGADICEYIQASFQYLPGQCIEEILDNLGCS
modifications: disulfide 1-34, 20-44
B19: C184 (designed binder)
chain: {Biotin-PEG4″}-CEYDEQFFTALKRLRGGDICSYIQASFQYLPGLCIEEILDNLGCS
modifications: disulfide 1-34, 20-44
B20: C186 (designed binder)
chain: {Biotin-PEG4″}-CEYDEQFFTALKRLRGDDICSYIQASFQYLPGLCIEEILDNLGCS
modifications: disulfide 1-34, 20-44
B21: C16 (designed binder)
chain: Ac-CEYDEEFFAGLKRLRGGDICYYIKKKFKKVPDLCIEEILDKLGC-OH
modifications: disulfide 1-34, 20-44
B22: C25 (designed binder)
chain: Ac-CEYDEEFFKGLKRLRGGDICYYIKKKFKKVPDLCIEEILDKLGC-OH
modifications: disulfide 1-34, 20-44
B23: C13 (designed binder)
chain: Ac-CEYDEEFFNGLKRLRGGDICYYIKKKFDKVPDLCIEEILDKLGC-OH
modifications: disulfide 1-34, 20-44
B24: C23 (designed binder)
chain: Ac-CEYDEEFFAGLHRLRGTDICYYIKKKFDKVPDLCIEEILDKLGC-OH
modifications: disulfide 1-34, 20-44
B25: C7 (designed binder)
chain: H-CEYDEEFFAGLKRLRGGDICYYIKKKFDKVPDLCIEEILDKLGC-OH
modifications: disulfide 1-34, 20-44
B26: C20 (designed binder)
chain: Ac-CEYDEEFFAGLHRLRGGDICYYIKKKFDKVPDLCIEEILDKLGC-OH
modifications: disulfide 1-34, 20-44
B27: C21 (designed binder)
chain: Ac-CEYDEEFFAGLHRLRGGDICYYIKKKFPKVPDLCIEEILDKLGC-OH
modifications: disulfide 1-34, 20-44
B28: C2 (designed binder)
chain: {Biotin-PEG4″}-CEDDEEFFADLKRLRGGDICYYIKLKFDKVPDLCIKEILDKLGC
modifications: disulfide 1-34, 20-44
B29: C19 (designed binder)
chain: Ac-CEYDEEFFAGLKRLRGGDICYYIKKKFPKVPDLCIEEILDKLGC-OH
modifications: disulfide 1-34, 20-44
B30: C26 (designed binder)
chain: Ac-CEYDEEFFEGLKRLRGGDICYYIKKKFKKVPDLCIEEILDKLGC-OH
modifications: disulfide 1-34, 20-44
B31: C10 (designed binder)
chain: {FITC}-CEYDEEFFAGLKRLRGGDICYYIKKKFDKVPDLCIEEILDKLGC-OH
modifications: disulfide 1-34, 20-44
B32: C18 (designed binder)
chain: Ac-CEYDEEFFNGLHRLRRGDICYYIKKKFKKVPDLCIEEILDKLGC-OH
modifications: disulfide 1-34, 20-44
B33: C3 (designed binder)
chain: H-CEYDEEFFAGLKRLRGGDICYYIKKKFDKVPDLCIKEILDKLGC-OH
modifications: disulfide 1-34, 20-44
B34: C24 (designed binder)
chain: Ac-CEYDEEFFAGLHRLRGTDICYYIKKKFPKVPDLCIEEILDKLGC-OH
modifications: disulfide 1-34, 20-44
B35: C14 (designed binder)
chain: Ac-CEYDEEFFAGLKRLRRGDICYYIKKKFDKVPDLCIEEILDKLGC
modifications: disulfide 1-34, 20-44
B36: C22 (designed binder)
chain: Ac-CEYDEEFFAGLKRLRGTDICYYIKKKFDKVPDLCIEEILDKLGC-OH
modifications: disulfide 1-34, 20-44
B37: C6 (designed binder)
chain: Ac-CEDDFQFFADLKRLRGGDICYYIRLKFDKVPDLCIKEILDKLGC-OH
modifications: disulfide 1-34, 20-44
B38: C11 (designed binder)
chain: {DTPA-PEG4″}-CEYDEEFFAGLKRLRGGDICYYIKKKFDKVPDLCIEEILDKLGC-OH
modifications: disulfide 1-34, 20-44
B39: C5 (designed binder)
chain: Ac-CEYDEEFFAGLKRLRGGDICYYIKKKFDKVPDLCIKEILDKLGC-OH
modifications: disulfide 1-34, 20-44
B40: C15 (designed binder)
chain: Ac-CEYDEEFFNGLKRLRRGDICYYIKKKFDKVPDLCIEEILDKLGC-OH
modifications: disulfide 1-34, 20-44
B41: C17 (designed binder)
chain: Ac-CEYDEEFFNGLKRLRGGDICYYIKKKFKKVPDLCIEEILDKLGC-OH
modifications: disulfide 1-34, 20-44
B42: C4 (designed binder)
chain: H-CEDDFQFFADLKRLRGGDICYYIRLKFDKVPDLCIKEILDKLGC-OH
modifications: disulfide 1-34, 20-44

Molecular target: T1, Human Nectin-4 (human, UniProt Q96NY8 32-349, limits assumed)
T1 construct: Protein immobilised on the SPR chip; also called target protein
T1 sequence: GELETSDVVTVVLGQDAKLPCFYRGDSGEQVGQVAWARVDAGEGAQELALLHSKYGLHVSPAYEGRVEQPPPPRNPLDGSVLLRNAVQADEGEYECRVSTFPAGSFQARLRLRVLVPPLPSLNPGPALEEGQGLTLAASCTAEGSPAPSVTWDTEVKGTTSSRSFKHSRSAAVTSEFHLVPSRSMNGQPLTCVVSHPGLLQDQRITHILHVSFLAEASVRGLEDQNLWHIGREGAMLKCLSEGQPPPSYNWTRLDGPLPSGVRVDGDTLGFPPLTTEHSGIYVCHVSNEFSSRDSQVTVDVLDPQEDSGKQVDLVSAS
Experiment: Table 2B (DELFIA or SPR)

| Binder | Kd [nM] |
| --- | --- |
| B1 | 1.2 |
| B2 | 1.4 |
| B3 | 1.1 |
| B4 | 1.3 |
| B5 | 2 |
| B6 | 2.1 |
| B7 | 1.6 |
| B8 | 1.98 |
| B9 | 2.3 |
| B10 | 1.19 |
| B11 | 2.3 |
| B12 | 1.54 |
| B13 | 2.2 |
| B14 | 1.08 |
| B15 | 1.1 |
| B16 | 2.3 |
| B17 | 1 |
| B18 | 1.25 |
| B19 | 2.5 |
| B20 | 1.7 |
| B21 | 4.34 |

| Binder | Kd [nM] |
| --- | --- |
| B22 | 3.75 |
| B23 | 6.01 |
| B24 | 18.5 |
| B25 | 5.5 |
| B26 | 22.1 |
| B27 | 49.4 |
| B28 | 58.9 |
| B29 | 10.8 |
| B30 | 5.04 |
| B31 | 37.6 |
| B32 | 38.2 |
| B33 | 9.68 |
| B34 | 84.4 |
| B35 | 14.1 |
| B36 | 12.8 |
| B37 | 17.1 |
| B38 | 6.86 |
| B39 | 18.9 |
| B40 | 12.2 |
| B41 | 4.16 |
| B42 | 14.4 |
